From publication PMC8119428, “LSD1-mediated demethylation of OCT4 safeguards pluripotent stem cells by maintaining the transcription of PORE-motif-containing genes”

Molecular target: OCT4 K222F (Homo sapiens, UniProt Q01860 1-360, K222F)
Test: EMSA; homodimer; significantly increased vs WT and other variants; LightShift EMSA: 20 ul, 1.5 ug His-OCT4, 0.5 ug His-SOX2 where used, 50 nM biotin-dsDNA, 1 ul poly(dI-dC), 1x loading buffer (salt and pH not stated), 30 min, 25 C
Conditions: protein: recombinant; tags: His (pET28a); label: 5'-biotin on sense strand; blunt

Sequence of OCT4 K222F (Q01860 whole entry K222F): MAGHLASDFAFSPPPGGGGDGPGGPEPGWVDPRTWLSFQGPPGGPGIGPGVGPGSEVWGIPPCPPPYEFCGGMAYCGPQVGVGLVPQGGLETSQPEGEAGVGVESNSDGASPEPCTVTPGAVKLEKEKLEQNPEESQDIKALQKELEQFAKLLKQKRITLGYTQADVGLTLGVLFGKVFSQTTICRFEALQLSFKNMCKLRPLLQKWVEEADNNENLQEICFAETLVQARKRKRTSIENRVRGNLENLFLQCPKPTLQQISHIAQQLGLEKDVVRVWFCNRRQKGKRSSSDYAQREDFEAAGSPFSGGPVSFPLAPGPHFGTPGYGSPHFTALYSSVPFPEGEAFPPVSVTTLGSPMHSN

B1: PORE probe (dsDNA)
DNA 1: TATACTAAGCAATTCTTCATTGATTTGAAATGCAAATTTGACTGGGCACCCTGTATCTT
DNA 2: AAGATACAGGGTGCCCAGTCAAATTTGCATTTCAAATCAATGAAGAATTGCTTAGTATA
**Q.** Does B1 bind?
**A.** binds
